± gives the standard deviation of the averaged measurements.
Columns and labels:
[1] = tested on: VchCAST RNA-guided transposition machinery (E. coli BL21(DE3) host, lacZ target); assay: relative integration efficiency (T-RL orientation) vs wild-type transposon end (log2 (normalized fold change)); transposon end mutated: right end (5 bp flank + 75 bp right end); higher = more efficient transposition
Outline: (§1)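 A T7-driven effector plasmid encoding a CRISPR array, tniQ-cas8-cas7-cas6 and tnsA-tnsB-tnsC was co-transformed into E. coli BL21(DE3) together with a pUC57 mini-transposon donor holding barcoded pools of 1549 left-end or 1849 right-end variants. Transformants were plated with 0.1 mM IPTG at 37°C for 18 h. Illumina sequencing of PCR-amplified input plasmids and genomic integration junctions gave barcode abundances, and relative integration efficiency is their output/input fold change, normalised to reference barcodes and log-transformed.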

[2] = tested on: VchCAST RNA-guided transposition machinery (E. coli BL21(DE3) host, lacZ target); assay: relative integration efficiency (T-LR orientation) vs wild-type transposon end (log2 (normalized fold change)); transposon end mutated: right end (5 bp flank + 75 bp right end); higher = more efficient transposition
Outline: as §1

Sequence | relative integration efficiency (log2) [1] | relative integration efficiency (log2) [2]
ACATTTGTTGATACAACCATAAAGTGATATTTACACCCATAAATTGATAATTATCACACCCATAAATTGATAATTACTCTGATCATAGTCAGACCAACATTGCTACGACCCGTATTCGCACCGACAC | 0.112 ± 0.071 | -0.191 ± 0.54
ACATTTGTTGATACAACCATAAAGTGATATTTACACCCATAAATTGATAATTATCACACCCATAAATTGATATTGCCTCTGATCATAGTCAGACCAACATTGCTACGACCCGTATTCGCACCGACAC | -0.207 ± 0.081 | -0.336 ± 0.44
ACATTTGTTGATACAACCATAAAGTGATATTTACACCCATAAATTGATAATTATCAGTGGGTATTTAACTATAACGCTCTGATCATAGTCAGACCAACATTGCTACGACCCGTATTCGCACCGACAC | -0.826 ± 0.22 | 2.57 ± 0.054
ACATTTGTTGATACAACCATAAAGTGATATTTACACCCATAAATTGATATTGCTCACAACCATAAAATGATAATTACTCTGATCATAGTCAGACCAACATTGCTACGACCCGTATTCGCACCGACAC | -0.254 ± 0.19 | 0.169 ± 0.17
ACATTTGTTGATACAACCATAAAGTGATATTTACACCCATAAATTGATATTGCTCACAACCATAAAGTGATATTTACTCTGATCATAGTCAGACCAACATTGCTACGACCCGTATTCGCACCGACAC | -0.237 ± 0.17 | 0.171 ± 0.15
ACATTTGTTGATACAACCATAAAGTGATATTTACACCCATAAATTGATATTGCTCACAACCATAAGTTGATATTTTCTCTGATCATAGTCAGACCAACATTGCTACGACCCGTATTCGCACCGACAC | -0.138 ± 0.13 | 0.0642 ± 0.26
ACATTTGTTGATACAACCATAAAGTGATATTTACACCCATAAATTGATATTGCTCACAACCATATATTGATATCTCCTCTGATCATAGTCAGACCAACATTGCTACGACCCGTATTCGCACCGACAC | -0.534 ± 0.18 | 0.671 ± 0.21
ACATTTGTTGATACAACCATAAAGTGATATTTACACCCATAAATTGATATTGCTCACACCCATAAATTGATAATTACTCTGATCATAGTCAGACCAACATTGCTACGACCCGTATTCGCACCGACAC | -0.232 ± 0.12 | 0.595 ± 0.26
ACATTTGTTGATACAACCATAAAGTGATATTTACACCCATAAATTGATATTGCTCACACCCATAAATTGATATTGCCTCTGATCATAGTCAGACCAACATTGCTACGACCCGTATTCGCACCGACAC | -0.333 ± 0.062 | 0.438 ± 0.27
ACATTTGTTGATACAACCATAAAGTGATATTTACACCCATAAATTGATATTGCTCAGTGGGTATTTAACTATAACGCTCTGATCATAGTCAGACCAACATTGCTACGACCCGTATTCGCACCGACAC | -0.797 ± 0.16 | 2.56 ± 0.28
ACATTTGTTGATACAACCATAAATACTTAATTACACCCATAAATTGATAATTATCACACCCATAAATTGATATTGCCTCTGATCATAGTCAGACCAACATTGCTACGACCCGTATTCGCACCGACAC | -2.25 ± 0.17 | -2.42 ± 0.21
ACATTTGTTGATACAACCATAAATAGATAATTACACCCATAAATTGATAATTATCACACCCATAAATTGATATTGCCTCTGATCATAGTCAGACCAACATTGCTACGACCCGTATTCGCACCGACAC | -0.642 ± 0.046 | -0.506 ± 0.44
ACATTTGTTGATACAACCATAAATTGATAATTACACCCATAAAATGATAATTATCACACCCATAAAATGATATTGCCTCTGATCATAGTCAGACCAACATTGCTACGACCCGTATTCGCACCGACAC | -0.12 ± 0.2 | -0.368 ± 0.16
ACATTTGTTGATACAACCATAACATGATAATTACACCCATAACTTGATAATTATCACACCCATAACTTGATATTGCCTCTGATCATAGTCAGACCAACATTGCTACGACCCGTATTCGCACCGACAC | -0.3313 ± 0.00055 | -0.127 ± 0.35
ACATTTGTTGATACAACCATAACCGTATAATTACACCCATAAATTGATAATTATCACACCCATAAATTGATATTGCCTCTGATCATAGTCAGACCAACATTGCTACGACCCGTATTCGCACCGACAC | -1.41 ± 0.21 | -1.78 ± 0.49
ACATTTGTTGATACAACCATAACCGTCGCCGGCACAAACGCCCGGTCGCCGGCGACACAAACGCCCGGTCGCGGTAAGAGGATCATAGTCAGACCAACATTGCTACGACCCGTATTCGCACCGACAC | -7.77 ± 0.98 | -6.09 ± 0.56
ACATTTGTTGATACAACCATAACCTGATAATTACACCCATAAATTGATAATTATCACACCCATAAATTGATATTGCCTCTGATCATAGTCAGACCAACATTGCTACGACCCGTATTCGCACCGACAC | -0.321 ± 0.01 | -0.337 ± 0.089
ACATTTGTTGATACAACCATAACCTGATAATTACACCCATAACGTGATAATTATCACACCCATAACGTGATATTGCCTCTGATCATAGTCAGACCAACATTGCTACGACCCGTATTCGCACCGACAC | -0.513 ± 0.02 | -0.339 ± 0.3
